Like-named read-outs stand apart in the source and are kept apart here.
Tests used:
human DC-SIGN [1] = target: T1, human DC-SIGN (Homo sapiens, UniProt Q9NNX6); test: FACS binding to K562 cells expressing human DC-SIGN; details: FACS MFI
T1 construct: expressed in transfected cells
T1 sequence (Q9NNX6 1-404): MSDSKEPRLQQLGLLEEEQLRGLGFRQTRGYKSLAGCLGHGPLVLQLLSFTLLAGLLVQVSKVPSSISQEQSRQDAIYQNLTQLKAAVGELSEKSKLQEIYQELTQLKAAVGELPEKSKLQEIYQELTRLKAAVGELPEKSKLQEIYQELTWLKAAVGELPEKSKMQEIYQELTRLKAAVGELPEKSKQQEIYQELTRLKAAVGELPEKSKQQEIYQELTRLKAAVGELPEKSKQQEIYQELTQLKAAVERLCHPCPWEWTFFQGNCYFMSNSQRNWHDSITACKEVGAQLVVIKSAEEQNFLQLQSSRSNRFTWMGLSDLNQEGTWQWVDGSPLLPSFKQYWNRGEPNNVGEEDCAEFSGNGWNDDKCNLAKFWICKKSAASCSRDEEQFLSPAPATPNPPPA
Protocol: (§1) The affinity of various antibodies and ADCs to DC-SIGN and its species orthologues was determined using FACS. Purified IgGs were titrated to determine EC50 values for binding to cell surface expressed DC-SIGN.
(§2) For this purpose, human DC-SIGN expressing or cynomolgus monkey DC-SIGN expressing stable CHO cell lines or K562 expressing DC-SIGN or K562 expressing L-SIGN cell lines were checked for density and viability using VICELL (Beckman Coulter), and washed once with 4° C. PBS. Cells were stained with DAPI (0.5 ug/mL) diluted in PBS for 30 min on ice. Cells were diluted into 4° C. FACS buffer (PBS, 10 mM EDTA, 2% FBS). 125 μl of cells were seeded (10,000 cells/well) into 96-well v-bottom plates (Nunc cat#442587) and centrifuged for 4 min at 1500 rpm at 4° C. Supernatant was removed. Cells were incubated with a serial dilution of each anti-DC-SIGN antibody in FACS buffer at concentrations ranging across several logs with a top concentration no higher than 50 μg/mL for 60 minutes at 4° C. Following incubation, cells were spun down (1500 rpm, 4 min, 4° C.) and washed two times with FACS buffer. A fluorophore-conjugated anti-hFc gamma-AF-647 (Southern Biotechnology) detection antibody was added at 1:400 and samples were incubated for 1 h on ice in the dark. Following incubation, FACS buffer was added, and the cells were spun down (1500 rpm, 4 min, 4° C.) and washed two times with FACS buffer. After the final wash, cells were resuspended in Fixative Buffer (Biolegend, 420801) and 90 μl of FACS buffer followed by readout on the flow cytometry machine (BD LSRFortessa Cell Analyzer; Cat #647177). Geometric Mean fluorescence intensity (MFI) of live, single cells was calculated in Flowjo 10.4.2 and exported into Graphpad Prism7 for EC50 determination.

[2] = target: T2, DC-SIGN Carbohydrate Recognition Domain (CRD) (Homo sapiens, UniProt Q9NNX6); test: Biacore affinity to DC-SIGN Carbohydrate Recognition Domain; format: binding; details: 25° C.
T2 construct: The DC-SIGN CRD was captured via the His tag; AviTag (C)
T2 sequence (Q9NNX6 with tags, fused parts or gaps): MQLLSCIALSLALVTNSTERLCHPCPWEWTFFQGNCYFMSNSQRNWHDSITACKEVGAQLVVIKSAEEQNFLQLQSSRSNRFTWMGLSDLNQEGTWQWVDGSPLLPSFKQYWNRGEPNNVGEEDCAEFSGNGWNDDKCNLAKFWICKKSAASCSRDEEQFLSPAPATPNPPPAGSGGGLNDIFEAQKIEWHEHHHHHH
Protocol: The affinity of various antibodies to DC-SIGN Carbohydrate Recognition Domain (CRD) was determined using Biacore. Purified IgGs for the parental antibodies were titrated to determine Kd values for binding to purified antigen domain by two methods described below.
In method 1 DC-SIGN was used as the ligand (surface attached) and the antibody the analyte (injected at different concentrations). The DC-SIGN CRD was captured via the His tag on a CM5 chip that was prepared by immobilizing 12000RU NeutrAvidin followed by capturing ˜550RU of Tris-NTA biotin. Fresh DC-SIGN was used for each dose. Each cycle consisted of charging the surface with a 120s pulse of 5 mM NiCl2, capturing the same amount of DC-SIGN, injecting the antibody at the desired concentration, and stripping the Ni^2+ with pulses of 350 mM EDTA and 500 mM imidazole to remove all DC-SIGN. Antibodies were injected at concentrations between 250 and 31 nM for 180s and allowed to dissociate for 600s. The reverse orientation was used in method 2-antibody the ligand and DC-SIGN the analyte. A CM5 chip was first prepared with mouse anti-human IgG Fc and used to capture the antibodies. […] Kinetic parameters were calculated using the 8K analysis software.

human DC-SIGN [3] = target: T1, human DC-SIGN; test: FACS binding to CHO cells stably expressing human DC-SIGN; details: FACS MFI, average
Protocol: as §1, §2

[4] = system: cynomolgus monkey DC-SIGN; test: FACS binding to CHO cells stably expressing cynomolgus monkey DC-SIGN; details: FACS MFI, average
Sequence of cynomolgus monkey DC-SIGN (as listed by the source): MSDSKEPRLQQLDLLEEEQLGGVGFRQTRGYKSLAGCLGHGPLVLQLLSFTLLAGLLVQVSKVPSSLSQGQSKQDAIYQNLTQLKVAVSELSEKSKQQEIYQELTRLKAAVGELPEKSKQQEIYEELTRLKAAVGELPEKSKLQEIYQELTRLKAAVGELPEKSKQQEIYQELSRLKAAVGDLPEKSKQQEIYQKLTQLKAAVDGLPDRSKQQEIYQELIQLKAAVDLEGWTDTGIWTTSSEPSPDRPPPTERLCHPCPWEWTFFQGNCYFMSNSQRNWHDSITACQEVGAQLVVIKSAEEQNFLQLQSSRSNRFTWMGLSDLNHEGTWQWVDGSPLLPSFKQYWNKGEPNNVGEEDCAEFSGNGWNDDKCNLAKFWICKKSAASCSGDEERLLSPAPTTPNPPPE
Protocol: as §1, §2
In a similar experiment the antibodies were tested for cross-reactivity using engineered isogenic matched cell line.

[5] = system: transgenic mice expressing human DC-SIGN gene (Tg+); test: Plasma cytokine production in transgenic mice expressing human DC-SIGN (ELISA / MesoScaleDiscovery); format: in vivo, mouse
Protocol: FIGS. 5A-5E show exemplary data on DC-SIGN immunoconjugates inducing cytokine production in Tg+ mice. […] Plasma levels were analyzed by ELISA (IP-10 and IFNβ) or MesoScaleDiscovery Multiplex analysis (all other analytes). **** denotes p value of <0.0001 using an ANOVA with Tukey's test compared to Tg-2B2 hlgG1 DAPA C1 group.
Mice were bled 6 hours after dosing to collect plasma for analysis of circulating cytokine levels.

[6] = system: CD11c+ dendritic cells of Tg+ mice; test: Dendritic cell activation in DC-SIGN Tg+ mice (spleen, flow cytometry); format: in vivo, mouse
Protocol: Spleens were harvested 24 hours post dose and analyzed by flow cytometry to look at CD11c+ dendritic cells.

B1: 892D15: anti-DC-SIGN antibody; All antibodies except 892D15 and 942K11 bind human and cynomolgus monkey DC-SIGN similarly; headings print 952D15 (antibody)
heavy: QVTLRESGPALVKPTQTLTLTCTFSGFSPSTSGMSVSWIRQPPGKALEWLALIDWDDDKYFSTSLKTRLTISKDTSKNQVVLTMTNMDPVDTATYYCARAHSGSYFDYWGQGTLVTVSSASTKGPSVFPLAPSSKSTSGGTAALGCLVKDYFPCPVTVSWNSGALTSGVHTFPAVLQSSGLYSLSSVVTVPSSSLGTQTYICNVNHKPSNTKVDKRVEPKSCDKTHTCPPCPAPELLGGPSVFLFPPKPKDTLMISRTPEVTCVVVAVSHEDPEVKFNWYVDGVEVHNAKTKPREEQYNSTYRVVSVLTVLHQDWLNGKEYKCKVSNKALAAPIEKTISKAKGQPREPQVYTLPPSREEMTKNQVSLTCLVKGFYPCDIAVEWESNGQPENNYKTTPPVLDSDGSFFLYSKLTVDKSRWQQGNVFSCSVMHEALHNHYTQKSLSLSPGK
light: DIQMTQSPSTLSASVGDRVTITCRASQSISNWLAWYQQKPGKAPKLLIYKASSLESGVPSRFSGSGSGTEFTLTISSLQPDDFATYYCQQFNSYWTFGQGTKVEIKRTVAAPSVFIFPPSDEQLKSGTASVVCLLNNFYPREAKVQWKVDNALQSGNSQESVTEQDSKDSTYSLSSTLTLSKADYEKHKVYACEVTHQGLSSPVTKSFNRGEC
- human DC-SIGN K562 EC50 (human DC-SIGN [1]): >10 µg/mL
- Kd ([2]; method 1: DC-SIGN CRD captured on chip, antibody as analyte, read-out: high density DC-SIGN CRD on chip): 0.111 µM
- Kd ([2]; method 2: antibody captured on chip, DC-SIGN CRD as analyte, read-out: Ab on chip): 47.6 µM
- human DC-SIGN CHO EC50 (ug/mL) ave. (human DC-SIGN [3]): 0.15 µg/mL
- cyno DC-SIGN CHO EC50 (ug/mL) ave. [4]: 15.69 µg/mL

B2: 2B2 (DAPA) DAR2 C1 (conjugate)
VH: QVQLVQSGAEVKKPGASVKVSCKASGYTFTNYGINWVRQAPGQRLEWMGYIYIGNDYTEYNERFKGRVTITSDTSASTAYMELSSLRSEDTAVYYCARLYYGSSLYSYAMDYWGQGTTVTVSS
VL: DIVMTQSPLSLPVTPGEPASISCRSSKSLLHSSGNTYLYWFLQKPGQSPQLLISRMSNLASGVPDRFSGSGSGTDFTLKISRVEAEDVGVYYCMQHLEYPYTFGGGTKVEIK
- circulating plasma IL-12p70 [5]: induced
- circulating plasma IP-10 [5]: induced
- CD86 upregulation on dendritic cells (DC activation) [6]: induced DC activation
